Here are results for 28 molecules from patent publication US20230265198A1 (TWIST BIOSCIENCE, published 2023).

This test deals with T1, neuropilin-1 (NRP1) on HEK293 cells overexpressing NRP1 (UniProt O14786 22-923, limits assumed).
T1 construct: whole, on cells
Kind of test: flow cytometry, HEK293-NRP1 vs HEK293. In general terms: A flow cytometer gives signals particle by particle.

B1: NRP1-103 (VHH)
VHH: EVQLVESGGGLVQPGGSLRLSCAASGRTLSRYTMGWFRQAPGKERELVATITSGGSTGYADSVKGRFTISADNSKNTAYLQMNSLKPEDTAVYYCAKDKWGVRGEFDSWGQGTLVTVSS
For B1, the “100 nM FACS (MFI Ratio)” value was 6.2.

B2: NRP1-98 (VHH)
VHH: EVQLVESGGGLVQPGGSLRLSCAASGLNLSRLDMGWFRQAPGKEREFVAAISWSGDSTNYADSVKGRFTISADNSKNTAYLQMNSLKPEDTAVYYCARIHKAPYYGMDVWGQGTLVTVSS
Take B2: the “100 nM FACS (MFI Ratio)” value came to 1.2.

B3: NRP1-101 (VHH)
VHH: EVQLVESGGGLVQPGGSLRLSCAASGRNRYGMGWFRQAPGKEREFVAAISRSGGSTNYADSVKGRFTISADNSKNTAYLQMNSLKPEDTAVYYCAKGGAQNYTWGQGTLVTVSS
In the case of B3, the “100 nM FACS (MFI Ratio)” value stood at 2.4.

B4: NRP1-93 (VHH)
VHH: EVQLVESGGGLVQPGGSLRLSCAASGIPFRSRTMGWFRQAPGKEREFVATINTGGGTYADSVKGRFTISADNSKNTAYLQMNSLKPEDTAVYYCARHGDTYYYGSGTVRSLDYWGQGTLVTVSS
For the molecule B4, the “100 nM FACS (MFI Ratio)” value stood at 1.4.

B5: NRP1-50 (VHH)
VHH: EVQLVESGGGLVQPGGSLRLSCAASGRTFNRYPMGWFRQAPGKEREWVAAISTSGGSTYYADSVKGRFTISADNSKNTAYLQMNSLKPEDTAVYYCAIHTSREIWGQGTLVTVSS
For the molecule B5, the “100 nM FACS (MFI Ratio)” value is 5.9.

B6: NRP1-45 (VHH)
VHH: EVQLVESGGGLVQPGGSLRLSCAASGRTFNRYPMGWFRQAPGKEREWVAAAHWSGGRMWYADSVKGRFTISADNSKNTAYLQMNSLKPEDTAVYYCAIHTSREIWGQGTLVTVSS
Consider B6, for which the “100 nM FACS (MFI Ratio)” value is 6.6.

B7: NRP1-95 (VHH)
VHH: EVQLVESGGGLVQPGGSLRLSCAASGRTFNRYPMGWFRQAPGKEREWISALAPGGGNRYYADSVKGRFTISADNSKNTAYLQMNSLKPEDTAVYYCAIHTSREIWGQGTLVTVSS
B7: the “100 nM FACS (MFI Ratio)” value came out at 1.5.

B8: NRP1-97 (VHH)
VHH: EVQLVESGGGLVQPGGSLRLSCAASGFDFDNFDDYAMGWFRQAPGKEREFVAEIGWRDTTLYADSVKGRFTISADNSKNTAYLQMNSLKPEDTAVYYCARGRYDLSDFDYWGQGTLVTVSS
For the molecule B8, the “100 nM FACS (MFI Ratio)” value was found to be 1.7.

B9: NRP1-110 (VHH)
VHH: EVQLVESGGGLVQPGGSLRLSCAASGRTFSNYSMGWFRQAPGKEREFVASIWWTFDAPYYADSVKGRFTISADNSKNTAYLQMNSLKPEDTAVYYCAKWDGLGTLWGQGTLVTVSS
For the molecule B9, the “100 nM FACS (MFI Ratio)” value was found to be 3.3.

B10: NRP1-136 (antibody, IgG2, V domains shown)
VH: EVQLLESGGGLVQPGGSLRLSCAASGFTFKDYGMNWVRQAPGKGLEWVSVISGSGGRPNYADSVKGRFTISRDNSKNTLYLQMNSLRAEDTAVYYCARVWRNHLDYWGQGTLVTVSS
VL: DIQMTQSPSSLSASVGDRVTITCSGDRLGEKYVSWYQQKPGKAPKLLIYGKKNRPSGVPSRFSGSGSGTDFTLTISSLQPEDFATYYCQAWASSTVVFGQGTKVEIK
On to B10, for which the “100 nM FACS (MFI Ratio)” value stood at 128.

B11: NRP1-10 (VHH)
VHH: EVQLVESGGGLVQPGGSLRLSCAASGFTFSMWPMGWFRQAPGKEREFVARITGGGSTIWSRGDTYYADSVKGRFTISADNSKNTAYLQMNSLKPEDTAVYYCARADYYDSSAFDYWGQGTLVTVSS
For B11, the “100 nM FACS (MFI Ratio)” value was 19.6.

B12: NRP1-124 (antibody, IgG2, V domains shown)
VH: EVQLLESGGGLVQPGGSLRLSCAASGFDFSDYEMSWVRQAPGKGLEWVSRISVAGRRTAYADSVKGRFTISRDNSKNTLYLQMNSLRAEDTAVYYCAKGRRKLRATRFDYWGQGTLVTVSS
VL: DIQMTQSPSSLSASVGDRVTITCSGDKLRNKYASWYQQKPGKAPKLLIYETSKLASGVPSRFSGSGSGTDFTLTISSLQPEDFATYYCQQSFSVPAFGQGTKVEIK
As for B12, the “100 nM FACS (MFI Ratio)” value was found to be 1200.

B13: NRP1-211 (antibody, IgG2, V domains shown)
VH: EVQLLESGGGLVQPGGSLRLYCAASGFTFGSYGMSWVRQAPGKGLEWVSSISGSGGSTYYTDSVKGRFTISRDNSKNTLYLQMNSLRAEDTAVYYCVRALAGRRDHWGQGTLVTVSS
VL: DIQMTQSPSSLSASVGDRVTITCRASQTISNYVNWYQQKPGKAPKLLIYAASSLHAGVPSRFSGSGSGTDFTLTISSLQPEDFATYYCQQGYSTPLTFGGGTKVEIK
On to B13, for which the “100 nM FACS (MFI Ratio)” value was found to be 3.8.

B14: NRP1-273 (antibody, IgG2, V domains shown)
VH: EVQLLESGGGLVQPGGSLRLYCAASGFTFGSYGMSWVRQAPGKGLEWVSSISGSGGSTYYTDSVKGRFTISRDNSKNTLYLQMNSLRAEDTAVYYCVRALAGRRDHWGQGTLVTVSS
VL: DIQMTQSPSSLSASVGDRVTITCRASRRISTYLNWYQQKPGKAPKLLIYAASSLHAGVPSRFSGSGSGTDFTLTISSLQPEDFATYYCQQGYSTPLTFGGGTKVEIK
On to B14, for which the “100 nM FACS (MFI Ratio)” value amounted to 6.2.

B15: NRP1-108 (VHH)
VHH: EVQLVESGGGLVQPGGSLRLSCAASGNIPPINAMGWFRQAPGKEREWVATITSGGSTTYADSVKGRFTISADNSKNTAYLQMNSLKPEDTAVYYCARDRYFYDTSGNQRSSWFDPWGQGTLVTVSS
Regarding B15, the “100 nM FACS (MFI Ratio)” value is 0.9.

B16: NRP1-271 (antibody, IgG2, V domains shown)
VH: EVQLLESGGGLVQPGGSLRLSCAASGFTFTTYGMSWVRQAPGKGLEWVSAISGSGGTTYYADSVKGRFTISRDNSKNTLYLQMNSLRAEDTAVYYCARVGPGRSIAARQGFKRRNNWFDPWGQGTLVTVSS
VL: DIQMTQSPSSLSASVGDRVTITCRARQSISTYLNWYQQKPGKAPKLLIYSASTLESGVPSRFSGSGSGTDFTLTISSLQPEDFATYYCQQSYRTPWTFGGGTKVEIK
On to B16, for which the “100 nM FACS (MFI Ratio)” value came to 0.8.

B17: NRP1-107 (VHH)
VHH: EVQLVESGGGLVQPGGSLRLSCAASGRTFSNSGMGWFRQAPGKEREFVAAISWNGGTTNYADSVKGRFTISADNSKNTAYLQMNSLKPEDTAVYYCATLGGTVSGSHWSYFYYMDVWGQGTLVTVSS
On to B17, for which the “100 nM FACS (MFI Ratio)” value was 2.8.

B18: NRP1-111 (VHH)
VHH: EVQLVESGGGLVQPGGSLRLSCAASGIAFRIRTMGWFRQAPGKERELVAAITSSSGRRWYADSVKGRFTISADNSKNTAYLQMNSLKPEDTAVYYCAARRIVNVEGAYRDWGQGTLVTVSS
Take B18: the “100 nM FACS (MFI Ratio)” value came to 0.7.

B19: NRP1-112 (VHH)
VHH: EVQLVESGGGLVQPGGSLRLSCAASGNIFINNAMGWFRQAPGKERELVAAITSSSGRRWYADSVKGRFTISADNSKNTAYLQMNSLKPEDTAVYYCAAYQRGWGDWGQGTLVTVSS
With B19, the “100 nM FACS (MFI Ratio)” value turned out to be 0.7.

B20: NRP1-113 (VHH)
VHH: EVQLVESGGGLVQPGGSLRLSCAASGHTFRGDVMGWFRQAPGKEREFVASISGSGTRTLYADSVKGRFTISADNSKNTAYLQMNSLKPEDTAVYYCARDVEGGWYGLSYGMDVWGQGTLVTVSS
Consider B20, for which the “100 nM FACS (MFI Ratio)” value is 0.4.

B21: NRP1-127 (antibody, IgG2, V domains shown)
VH: EVQLLESGGGLVQPGGSLRLSCAASGFTFSNYGVSWVRQAPGKGLEWVSYISSSGSSTYYADSVKGRFTISRDNSKNTLYLQMNSLRAEDTAVYYCAKGARRFDYWGQGTLVTVSS
VL: DIQMTQSPSSLSASVGDRVTITCRASHNINSYLNWYQQKPGKAPKLLIYGKKNRPSGVPSRFSGSGSGTDFTLTISSLQPEDFATYYCGQSYRYPLTFGQGTKVEIK
Turning to B21, the “100 nM FACS (MFI Ratio)” value worked out at 2.1.

B22: NRP1-104 (VHH)
VHH: EVQLVESGGGLVQPGGSLRLSCAASGFSFDDYVMGWFRQAPGKEREFVARISTSGSWTGYADSVKGRFTISADNSKNTAYLQMNSLKPEDTAVYYCAINYSPGYPDHWGQGTLVTVSS
B22: the “100 nM FACS (MFI Ratio)” value came out at 6.2.

B23: NRP1-109 (VHH)
VHH: EVQLVESGGGLVQPGGSLRLSCAASGRTSRSYDMGWFRQAPGKEREFVASIDQSGESTAYADSVKGRFTISADNSKNTAYLQMNSLKPEDTAVYYCARADYYGSGSYFDYWGQGTLVTVSS
As to B23, the “100 nM FACS (MFI Ratio)” value was 2.1.

B24: NRP1-94 (VHH)
VHH: EVQLVESGGGLVQPGGSLRLSCAASGRTFSTYASMGWFRQAPGKEREFVARIWPGGSTYYADSVKGRFTISADNSKNTAYLQMNSLKPEDTAVYYCARQFGAWLGEVVGPMDVWGQGTLVTVSS
B24: the “100 nM FACS (MFI Ratio)” value is 2.8.

B25: NRP1-120 (antibody, IgG2, V domains shown)
VH: EVQLLESGGGLVQPGGSLRLSCAASGFTFKSYGMHWVRQAPGKGLEWVSEISPSGKKKYYADSVKGRFTISRDNSKNTLYLQMNSLRAEDTAVYYCAAPNDQSAAFDYWGQGTLVTVSS
VL: DIQMTQSPSSLSASVGDRVTITCKASDHIGKFLTWYQQKPGKAPKLLIYPKHNRPPGVPSRFSGSGSGTDFTLTISSLQPEDFATYYCQQSYDNPLTFGQGTKVEIK
For the molecule B25, the “100 nM FACS (MFI Ratio)” value was 5.2.

B26: NRP1-137 (antibody, IgG2, V domains shown)
VH: EVQLLESGGGLVQPGGSLRLSCAASGFTFSRYAMNWVRQAPGKGLEWVSTISSGGGYTYYPDSVKGRFTISRDNSKNTLYLQMNSLRAEDTAVYYCARSYGGGFDYWGQGTLVTVSS
VL: DIQMTQSPSSLSASVGDRVTITCQASQSISSYLAWYQQKPGKAPKLLIYPKHNRPPGVPSRFSGSGSGTDFTLTISSLQPEDFATYYCQQSYKSPLTFGQGTKVEIK
As for B26, the “100 nM FACS (MFI Ratio)” value is 1200.

B27: NRP1-14 (VHH)
VHH: EVQLVESGGGLVQPGGSLRLSCAASGFTFRNFGMGWFRQAPGKEREFVSAISPGGVERYADSVKGRFTISADNSKNTAYLQMNSLKPEDTAVYYCATVGGYDYGYYYGMDVWGQGTLVTVSS
Consider B27, for which the “100 nM FACS (MFI Ratio)” value was 15.4.

B28: NRP1-102 (VHH)
VHH: EVQLVESGGGLVQPGGSLRLSCAASGGTIRTMGWFRQAPGKEREFVATISWSGALTHYADSVKGRFTISADNSKNTAYLQMNSLKPEDTAVYYCAHRDNFWSAYYDFWGQGTLVTVSS
B28: the “100 nM FACS (MFI Ratio)” value was 2.5.
